From patent publication US20210002363A1 (PHANES THERAPEUTICS, published 2021) come the findings set out here.

The target in this experiment is T1, Recombinant extracellular domain of human FOLR1 (Novoprotein, Cat#: C784) (human, UniProt P15328 25-233, limits assumed).
T1 construct: Bought reagent; also called recombinant FOLR1; immobilized FOLR1 extracellular domain
Description: ELISA on immobilized FOLR1 extracellular domain; O.D. 450 nm. (ELISA stands for enzyme-linked immunosorbent assay.)

T1 sequence (P15328 25-233 limits assumed): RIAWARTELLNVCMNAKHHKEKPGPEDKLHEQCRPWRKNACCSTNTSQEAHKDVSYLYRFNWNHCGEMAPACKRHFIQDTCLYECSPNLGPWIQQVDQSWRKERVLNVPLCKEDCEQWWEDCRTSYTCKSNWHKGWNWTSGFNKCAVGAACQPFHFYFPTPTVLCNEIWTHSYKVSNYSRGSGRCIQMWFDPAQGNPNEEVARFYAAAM

B1: F20-H1L3 (antibody, V domains shown)
VH: QVQLVQSGAEVKKPGSSVKVSCKASGYTFASYYLYWVRQAPGQGLEWIGEINPRSGGTNFNEKFKSRATVTVDKSTSTAYMELSSLRSEDTAVYYCSRSGRLRGFYTMDYWGQGTLVTVSS
VL: DIQMTQSPSTLSASVGDRVTITCKAGENVGSYVSWYQQKPGKAPKLLIYGASNRYTGVPARFSGSGSATEFTLTISSLQPDDFATYYCGQTYRFLTFGQGTKVEVK
notes: also called humanized F20 mAb H1L3
A word on the EC50 (read off the curve): it is the concentration giving half of the maximal effect. With B1, the 50% effective concentration (EC50 (read off the curve)) is roughly 200 pM.
